# Molecular target: T1, Wild Type Ub (human, UniProt P0CG48 1-76)
# T1 construct: native (tag-free) WT ubiquitin was the analyte in BLI; also called wt Ub; WT ubiquitin
# Assay: ELISA on immobilized HECT domain
# Protocol: Proteins in study were immobilized on 384-well MaxiSorp plates (Thermo Scientific 12665347) by adding 30 μL of 1 μM proteins for overnight incubation at 4° C. Phage and protein ELISA against immobilized proteins was performed as described (Ernst et al., 2013). Binding of phage was detected using anti-M13-HRP antibody (GE Healthcare 27942101) and binding of FLAG-tagged UbVs was detected using anti-FLAG-HRP antibody (Sigma-Aldrich A8592). […] EC₅₀ values were calculated using the GraphPad Prism software with the built-in equation formula (non-linear regression curve).
row,Binder,binding result
1,"SMURF1 HECT domain (enzyme, human, UniProt Q9HCE7 374-757, looked up, domain: HECT domain; His- and Avi-tagged for selection and ELISA; also called S1) YERDLVQKLKVLRHELSLQQPQAGHCRIEVSREEIFEESYRQIMKMRPKDLKKRLMVKFRGEEGLDYGGVAREWLYLLCHEMLNPYYGLFQYSTDNIYMLQINPDSSINPDHLSYFHFVGRIMGLAVFHGHYINGGFTVPFYKQLLGKPIQLSDLESVDPELHKSLVWILENDITPVLDHTFCVEHNAFGRILQHELKPNGRNVPVTEENKKEYVRLYVNWRFMRGIEAQFLALQKGFNELIPQHLLKPFDQKELELIIGGLDKIDLNDWKSNTRLKHCVADSNIVRWFWQAVETFDEERRARLLQFVTGSTRVPLQGFKALQGSTGAAGPRLFTIHLIDANTDNLPKAHTCFNRIDIPPYESYEKLYEKLLTAVEETCGFAVE",no binding
2,"UBE3C HECT domain (enzyme, human, UniProt Q15386 693-1083, looked up, domain: HECT domain; His- and Avi-tagged for selection and ELISA) VPFEERVKIFQRLIYADKQEVQGDGPFLDGINVTIRRNYIYEDAYDKLSPENEPDLKKRIRVHLLNAHGLDEAGIDGGGIFREFLNELLKSGFNPNQGFFKTTNEGLLYPNPAAQMLVGDSFARHYYFLGRMLGKALYENMLVELPFAGFFLSKLLGTSADVDIHHLASLDPEVYKNLLFLKSYEDDVEELGLNFTVVNNDLGEAQVVELKFGGKDIPVTSANRIAYIHLVADYRLNRQIRQHCLAFRQGLANVVSLEWLRMFDQQEIQVLISGAQVPISLEDLKSFTNYSGGYSADHPVIKVFWRVVEGFTDEEKRKLLKFVTSCSRPPLLGFKELYPAFCIHNGGSDLERLPTASTCMNLLKLPEFYDETLLRSKLLYAIECAAGFELS",no binding
3,"KIAA0317 HECT domain (enzyme, human, UniProt O15033 436-823, looked up, domain: HECT domain; His- and Avi-tagged for selection and ELISA) SETFQDKVNFFQRELRQVHMKRPHSKVTLKVSRHALLESSLKATRNFSISDWSKNFEVVFQDEEALDWGGPRREWFELICKALFDTTNQLFTRFSDNNQALVHPNPNRPAHLRLKMYEFAGRLVGKCLYESSLGGAYKQLVRARFTRSFLAQIIGLRMHYKYFETDDPEFYKSKVCFILNNDMSEMELVFAEEKYNKSGQLDKVVELMTGGAQTPVTNANKIFYLNLLAQYRLASQVKEEVEHFLKGLNELVPENLLAIFDENELELLMCGTGDISVSDFKAHAVVVGGSWHFREKVMRWFWTVVSSLTQEELARLLQFTTGSSQLPPGGFAALCPSFQIIAAPTHSTLPTAHTCFNQLCLPTYDSYEEVHRMLQLAISEGCEGFGML",no binding
4,"HERC2 HECT domain (enzyme, human, UniProt O95714 4412-4834, looked up, domain: HECT domain; His- and Avi-tagged for selection and ELISA; also called H2) RQHGPVVELNRIQVKRSRSKGGLAGPDGTKSVFGQMCAKMSSFGPDSLLLPHRVWKVKFVGESVDDCGGGYSESIAEICEELQNGLTPLLIVTPNGRDESGANRDCYLLSPAARAPVHSSMFRFLGVLLGIAIRTGSPLSLNLAEPVWKQLAGMSLTIADLSEVDKDFIPGLMYIRDNEATSEEFEAMSLPFTVPSASGQDIQLSSKHTHITLDNRAEYVRLAINYRLHEFDEQVAAVREGMARVVPVPLLSLFTGYELETMVCGSPDIPLHLLKSVATYKGIEPSASLIQWFWEVMESFSNTERSLFLRFVWGRTRLPRTIADFRGRDFVIQVLDKYNPPDHFLPESYTCFFLLKLPRYSCKQVLEEKLKYAIHFCKSIDTDDYARIALTGEPAADDSSDDSDNEDVDSFASDSTQDYLTGH",no binding
5,"HECTD1 HECT domain (enzyme, human, UniProt Q9ULT8 2151-2610, looked up, domain: HECT domain; His- and Avi-tagged for selection and ELISA) IHADRKSVLEVEFLGEEGTGLGPTLEFYALVAAEFQRTDLGAWLCDDNFPDDESRHVDLGGGLKPPGYYVQRSCGLFTAPFPQDSDELERITKLFHFLGIFLAKCIQDNRLVDLPISKPFFKLMCMGDIKSNMSKLIYESRGDRDLHCTESQSEASTEEGHDSLSVGSFEEDSKSEFILDPPKPKPPAWFNGILTWEDFELVNPHRARFLKEIKDLAIKRRQILSNKGLSEDEKNTKLQELVLKNPSGSGPPLSIEDLGLNFQFCPSSRIYGFTAVDLKPSGEDEMITMDNAEEYVDLMFDFCMHTGIQKQMEAFRDGFNKVFPMEKLSSFSHEEVQMILCGNQSPSWAAEDIINYTEPKLGYTRDSPGFLRFVRVLCGMSSDERKAFLQFTTGCSTLPPGGLANLHPRLTVVRKVDATDASYPSVNTCVHYLKLPEYSSEEIMRERLLAATMEKGFHLN",no binding
6,"EDD1 HECT domain (enzyme, human, UniProt O95071 2462-2799, looked up, domain: HECT domain; His- and Avi-tagged for selection and ELISA) LDLGLVDSSEKVQQENRKRHGSSRSVVDMDLDDTDDGDDNAPLFYQPGKRGFYTPRPGKNTEARLNCFRNIGRILGLCLLQNELCPITLNRHVIKVLLGRKVNWHDFAFFDPVMYESLRQLILASQSSDADAVFSAMDLAFAIDLCKEEGGGQVELIPNGVNIPVTPQNVYEYVRKYAEHRMLVVAEQPLHAMRKGLLDVLPKNSLEDLTAEDFRLLVNGCGEVNVQMLISFTSFNDESGENAEKLLQFKRWFWSIVEKMSMTERQDLVYFWTSSPSLPASEEGFQPMPSITIRPPDDQHLPTANTCISRLYVPLYSSKQILKQKLLLAIKTKNFGFV",no binding
7,"HECW2 HECT domain (enzyme, domain: HECT domain; His- and Avi-tagged for selection and ELISA) not shown",no binding

# Now from value to binder:
row,binding result,Binder
1,no binding,"HACE1 HECT domain (enzyme, human, UniProt Q8IYU2 529-909, looked up, domain: HECT domain; His- and Avi-tagged for selection and ELISA) EWFYEHLHSGQPDSDMVHRPVNENDILLVHRDSIFRSSCEVVSKANCAKLKQGIAVRFHGEEGMGQGVVREWFDILSNEIVNPDYALFTQSADGTTFQPNSNSYVNPDHLNYFRFAGQILGLALNHRQLVNIYFTRSFYKHILGIPVNYQDVASIDPEYAKNLQWILDNDISDLGLELTFSVETDVFGAMEEVPLKPGGGSILVTQNNKAEYVQLVTELRMTRAIQPQINAFLQGFHMFIPPSLIQLFDEYELELLLSGMPEIDVSDWIKNTEYTSGYEREDPVIQWFWEVVEDITQEERVLLLQFVTGSSRVPHGGFANIMGGSGLQNFTIAAVPYTPNLLPTSSTCINMLKLPEYPSKEILKDRLLVALHCGSYGYTMA"
2,no binding,"HERC1 HECT domain (enzyme, human, UniProt Q15751 4460-4861, looked up, domain: HECT domain; His- and Avi-tagged for selection and ELISA; also called H1) IGKTMVQGKNYGPQITVKRISTRGRKCKPIFVQIARQVVKLNASDLRLPSRAWKVKLVGEGADDAGGVFDDTITEMCQELETGIVDLLIPSPNATAEVGYNRDRFLFNPSACLDEHLMQFKFLGILMGVAIRTKKPLDLHLAPLVWKQLCCVPLTLEDLEEVDLLYVQTLNSILHIEDSGITEESFHEMIPLDSFVGQSADGKMVPIIPGGNSIPLTFSNRKEYVERAIEYRLHEMDRQVAAVREGMSWIVPVPLLSLLTAKQLEQMVCGMPEISVEVLKKVVRYREVDEQHQLVQWFWHTLEEFSNEERVLFMRFVSGRSRLPANTADISQRFQIMKVDRPYDSLPTSQTCFFQLRLPPYSSQLVMAERLRYAINNCRSIDMDNYMLSRNVDNAEGSDTDY"
3,no binding,"HERC6 HECT domain (enzyme, human, UniProt Q8IVU3 650-1022, looked up, domain: HECT domain; His- and Avi-tagged for selection and ELISA; also called H6) KAYMLMHETILQKKDEFPPSPRFILRVRRSRLVKDALRQLSQAEATDFCKVLVVEFINEICPESGGVSSEFFHCMFEEMTKPEYGMFMYPEMGSCMWFPAKPKPEKKRYFLFGMLCGLSLFNLNVANLPFPLALYKKLLDQKPSLEDLKELSPRLGKSLQEVLDDAADDIGDALCIRFSIHWDQNDVDLIPNGISIPVDQTNKRDYVSKYIDYIFNVSVKAVYEEFQRGFYRVCEKEILRHFYPEELMTAIIGNTDYDWKQFEQNSKYEQGYQKSHPTIQLFWKAFHKLTLDEKKKFLFFLTGRDRLHARGIQKMEIVFRCPETFSERDHPTSITCHNILSLPKYSTMERMEEALQVAINNNRGFVSPMLTQS"
4,no binding,"HERC4 HECT domain (enzyme, human, UniProt Q5GLZ8 685-1057, looked up, domain: HECT domain; His- and Avi-tagged for selection and ELISA; also called H4) AIDQAHRQNVSSLFLPVIESVNPCLILVVRRENIVGDAMEVLRKTKNIDYKKPLKVIFVGEDAVDAGGVRKEFFLLIMRELLDPKYGMFRYYEDSRLIWFSDKTFEDSDLFHLIGVICGLAIYNCTIVDLHFPLALYKKLLKKKPSLDDLKELMPDVGRSMQQLLDYPEDDIEETFCLNFTITVENFGATEVKELVLNGADTAVNKQNRQEFVDAYVDYIFNKSVASLFDAFHAGFHKVCGGKVLLLFQPNELQAMVIGNTNYDWKELEKNTEYKGEYWAEHPTIKIFWEVFHELPLEKKKQFLLFLTGSDRIPILGMKSLKLVIQSTGGGEEYLPVSHTCFNLLDLPKYTEKETLRSKLIQAIDHNEGFSLI"
5,no binding,"HECW1 HECT domain (enzyme, domain: HECT domain; His- and Avi-tagged for selection and ELISA) not shown"
6,no binding,"HUWE1 HECT domain (enzyme, human, UniProt Q7Z6Z7 3993-4374, looked up, domain: HECT domain; His- and Avi-tagged for selection and ELISA) DFDVKRKYFRQELERLDEGLRKEDMAVHVRRDHVFEDSYRELHRKSPEEMKNRLYIVFEGEEGQDAGGLLREWYMIISREMFNPMYALFRTSPGDRVTYTINPSSHCNPNHLSYFKFVGRIVAKAVYDNRLLECYFTRSFYKHILGKSVRYTDMESEDYHFYQGLVYLLENDVSTLGYDLTFSTEVQEFGVCEVRDLKPNGANILVTEENKKEYVHLVCQMRMTGAIRKQLAAFLEGFYEIIPKRLISIFTEQELELLISGLPTIDIDDLKSNTEYHKYQSNSIQIQWFWRALRSFDQADRAKFLQFVTGTSKVPLQGFAALEGMNGIQKFQIHRDDRSTDRLPSAHTCFNQLDLPAYESFEKLRHMLLLAIQECSEGFGLA"

# — patent US20200277346A1 (GOVERNING COUNCIL OF THE UNIVERSITY OF TORONTO, published 2020)
